In assay [1] the target is HoxA without the hydrophobic C-terminal membrane anchor (HoxA∆CTA), Strep-tagged (Alternaria alternata). Nature of the assay: SEC. (In general: Size exclusion chromatography separates by hydrodynamic size, large species first.)
Assay [2] has as its target Holo-PGP (chromophore-loaded photosensory domain of FphA) (A. nidulans). Nature of the assay: BLI. On the technique in general: Biolayer interferometry detects binding as a change in optical thickness at a sensor tip.
The target in assay [3] is Apo-PGP (photosensory domain of FphA without chromophore) (A. nidulans). Nature of the assay: BLI.

The stoichiometry N is a count of units in the complex or per binding partner. Usually Kd stands for the concentration at which binding is half-saturated.

Turning to “HoxA without the hydrophobic C-terminal membrane anchor (HoxA∆CTA), Strep-tagged (domain or fragment)”, the stoichiometry N in assay [1] came out at 2. Further, the equilibrium dissociation constant (Kd) in assay [2] was found to be 64.6 mM; in assay [3], 0.00113 mM.

The values above are taken from article PMC8447599.
